Test: soluble on expression in E. coli; label from the status in PepcDB or PDB records

| Sequence | soluble on expression in E. coli |
| --- | --- |
| MGSDKIHHHHHHMVNGRFFTTAGESPAFRGRAWGRVVTQYFGGLDACCDGDDAFDAQLSQYEIGPMRVFTIAAPAHRIVRPVAALHDHGSDFFKLILQLSGVSEIEQRGKTFRLHSGDWSLYDPRVPYSIANLTHVEQLAIQIPRKQLGGFAVPDLHTSDVREFELKGLFSLLSSFLVSLSEQLPSLPGTTGTALSETILGLIVSTLTAQRDAQGEHVALPAVLRMRVKQYIHGHLADADLSIDRIARELRCSKRYLHRIFEEEGVTIDRYIWSSRLERCKDALDNARAAKPAISEIAFSWGFSSSAHFCRSFKQRYGMTPREFVRRRAWS | not soluble |
| AKGDPHVLLTTSAGNIELELDKQKAPVSVQNFVDYVNSGFYNNTTFHRVIPGFMIQGGGFTEQMQQKKPNPPIKNEADNGLRNTRGTIAMARTADKDSATSQFFINVADNAFLDHGQRDFGYAVFGKVVKGMDVADKISQVPTHDVGPYQNVPSKPVVILSATVLP | soluble |
| MGSDKIHHHHHHMNVAIIGCGYVGYQVAQYWQQKMNFVVSTTTTSPERVPALQSVSQRVFVTSGNDLDSLKSVLHNQDVVLLSVGAKGAEVYEETYLQTAQNLVSCLQQNPSVKQLIYTGSYAVYGDRNGVWVDEETPLAPANLNAQILRKTEDILLSASSENLRVCIFRLGGIYGPGRELLKIFSRYSGTNRPGGEDITNWIHLDDIVGAIEFARNRRLQGIYNLVDDAHLTSRDLLDSLFEKHNLPKVIWDTTVKSTRPYNAWVSNEKLKEAGYQLIHPQMIF | not soluble |
| MGFGDIQTQPGTYSMHHMTTSTRITSRFLKNKTTNMKRLGVDPPCGVPEPKEDVLLAVSCDAFAFGQDDTNNDRITVEWTNTPDGAAKQFRREWF | not soluble |
| MTRLAVEAAEQARLAAEVEAQRIAAETAEHARVVAEAEAKRVADEQALFAAEAEAHRITAEAAEQARMEAEAQAQRDADEHARVTAEAQALEAGKTLRLPEAGTPQLGAVAGVISVTAGSGLFLDATIQAAIEILAALVGTAVSSTTAVGIGTLLYSPSLGNGELPGRMLDLPARVLMPDLPDALNDVAATGGTVDMPYRIYGDQSKYSVVATQPEGGFSPKVPVRALILDPVANAYTFTTSDTPPITLTFPIAAPENSSTTTVAQPIETPAYTGITLEPIEVKAEPLPATSPLDIRDAIYVYPVNSGLPPVYVVFSSPYEGATTKGEHSGRMYDPDNAGGPTQNLDWTTASVTQNGIDLVKLHTGRFEPSDANAVMIDRLEKILRSELSMTDTDKRFYTHELRELERYRALGVADGVEGEVWNNAHTATLEDYKLKDSSESFYTPEAITAENKQVYGELEHHHHHH | not soluble |
| MKQLTILGSTGSIGNSTLSVVRANPELFKVTALVAGRNVREMAQQCLEFSPRYAAMSDEHSAKSLRLLLAEQGSDTEVYSGETAACELAALDDVDQVMAAIVGIAGLPSTLAAIRAGKQVLLANKESLITCGKLFMDEVKRSRAQLLPIDSEHNAIFQSLPERIQRQLGYSSLNENGVSRIILTGSGGPFRETPLSQFSDVTPDQACAHPNWSMGRKISVDSATMMNKGLEYIEARWLFNASAEQIEVVLHPQSVIHSMVRYHDGSILAQMGTPDMRTPIAHAMAYPMRVSSGVAPLDFCKVGALTFTTPDYQRYPCLKLAIDACNAGQAATTALNAANEISVMAFLDSKIRFTDIEVINRTVVEGLLLSEPTSVEEVLVIDRKARDVAAQVIAKLNN | not soluble |
| MSLSTIGSMMSIYSEAGDFGNIFVTGRIAFSLKYEQQTQSLVVHVKECHQLAYADEAKKRSNPYVKTYLLPDKSRQGKRKTSIKRDTVNPLYDETLRYEIPESLLAQRTLQFSVWHHGRFGRNTFLGEAEIQMDSWKLDKKLDHCLPLHGKISAESPTGLPSHKGELVVSLKYIPASKTPVGGDRKKSKGGEGGELQVWIKEAKNLTAAKAGGTSDSFVKGYLLPMRNKASKRKTPVMKKTLNPHYNHTFVYNGVRLEDLQHMCLELTVWDREPLASNDFLGGVRLGVGTGISNGEVVDWMDSTGEEVSLWQKMRQYEGHHHHHH | not soluble |
| MARTIPVLEIFGPTIQGEGMVIGQKTMFVRTAGCDYRCRWCDSAFTWDGSAKDEIEQLTADEIWRRLEAIGGRRFRHVTISGGNPLLIAALGELIALLHEKGMRVAVETQGSRWQDWLLDIDDVTLSPKPPSSGMDTDWSALDQIIERLQADQSRVRRISLKVVVFDDADLAYAKEVHCRYPGVPFYLQTGNADVADSDVDALRAKLLSRLEWLVEQAADSEELADVHILPQLHTLLWGNKRGV | not soluble |
| KTNTEQFCSDCHMNDVVPEYRASAHYSNRSGVKAVCADCHVPHEFAPKMLRKLQASTEVYAHLTGKVDNKEKFEAHRLAMAEREWARMKANNSQECRNCHNFEDMDFTQQKTVAQQMHSRAETENKTCIDCHKGIAHNLPHMEKVQKSFIPDDMIKKTEKATEIK | not soluble |

Source: the DeepSol protein solubility set
